Source: patent US20070224212A1 (Merck Sharp & Dohme, published 2007)
Numbered stars: 1 amine (or outer) side, 2 acyl side, 3 side chain; on linkers, the order of the positions; unused ones are H or OH. Bridge positions count the residues as written; N and C are the ends. Square brackets hold non-standard residues; d marks the D form. Ends that are not written are not given here. I, II: the chains in the order shown. * marks the point of attachment. Cys(Acm) = Cys protected with acetamidomethyl (Acm), CC(=O)NCSC[C@H](N[*:1])C(=O)[*:2]; Biotin = O=C1N[C@H]2[C@H](CS[C@H]2CCCCC(=O)*)N1; Ttds = O=C(CCC(=O)[*:2])NCCCOCCOCCOCCCN[*:1]

How the values were obtained:
Experiment in all cases: cell-based or functional assay
HIV-1 gp41 (strain HXB2) [1] = molecular target: T1, HIV-1 gp41 (strain HXB2) (HIV-1 strain HXB2, UniProt P04578 512-856)
HIV-1 gp41 (strain HXB2) [2] = molecular target: T1, HIV-1 gp41 (strain HXB2); remark: listed apart in the source
HIV-1 gp41 (strain HXB2) [3] = molecular target: T1, HIV-1 gp41 (strain HXB2); remark: listed apart in the source
HIV-1 gp41 (strain 89.6) = HIV-1 gp41 (strain 89.6) (HIV-1 strain 89.6)
gp41 of SHIV-89.6P = gp41 of SHIV-89.6P (SHIV-89.6P)
HIV-1 gp41 (strain MN-1) = HIV-1 gp41 (strain MN-1) (HIV-1 strain MN-1, UniProt P05877 514-856)
[4] = molecular target: HIV-1 gp41 (strain NL4-3) (HIV-1 strain NL4-3)
HIV-1 gp41 (strain BaL) = HIV-1 gp41 (strain BaL) (HIV-1 strain BaL)

Sequence of HIV-1 gp41 (strain MN-1) (P05877 514-856 limits assumed): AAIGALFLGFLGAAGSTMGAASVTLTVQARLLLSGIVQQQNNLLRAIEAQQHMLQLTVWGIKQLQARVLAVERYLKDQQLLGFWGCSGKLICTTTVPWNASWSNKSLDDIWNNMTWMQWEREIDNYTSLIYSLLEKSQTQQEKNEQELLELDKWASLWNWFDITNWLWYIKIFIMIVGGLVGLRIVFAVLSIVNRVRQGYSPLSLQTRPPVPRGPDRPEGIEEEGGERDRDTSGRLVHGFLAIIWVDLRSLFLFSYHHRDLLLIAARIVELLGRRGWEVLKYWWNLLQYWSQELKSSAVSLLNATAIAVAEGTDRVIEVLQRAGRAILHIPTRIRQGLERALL

For Ac-IKKEIEAIKKEQEAIKKKIEAIEKLLQLTVWGIKALAAAIA-NH2 [IZN17Ala4], the “IC50, single-cycle infectivity assay, HIV-1 HXB2 (FIG. 12A)” value (HIV-1 gp41 (strain HXB2) [1]) was 25 nM and the “IC50, anti-viral activity against HIV-HXB2” value (“IC50 … against HIV-HXB2” below) (HIV-1 gp41 (strain HXB2) [2]) was 25.3 nM.

B1: (CCS17N17)3 (peptide)
peptide chain of the covalent trimer: Ac-CCGGIEKKIEAIEKKIEAIEKLLQLTVWGIKQLQARIL-NH2
modifications: not fully specified (bridges); also: homotrimer of three chains, cysteine pairing not given here
For B1, the “IC50 … against HIV-HXB2” value (HIV-1 gp41 (strain HXB2) [2]) was 0.33 nM.

For Biotin-GGIKKEIEAIKKEQEAIKKKIEAIEKEIEAQQHLLQLTVWGIKQLQARIL [Biotin-IZN23], the “IC50, single-cycle HIV infectivity assay” value (HIV-1 gp41 (strain HXB2) [3]) was 2.17 nM.

B2: ac-C(Acm)(thioE10N17)3 (peptide)
peptide 1: Ac-[Cys(Acm)][Ttds]CCIEEKIEEIEELLQLTVWGIKQLQARIL
peptide 2: Ac-GGGIEEKIEEIEELLQLTVWGIKQLQARIL
modifications: bridge I:N-I:4; thioether (positions not given here); not fully specified (bridges); also: trimer, copy numbers of chains not given here
For B2, the “IC50 … against HIV-HXB2” value (HIV-1 gp41 (strain HXB2) [2]) was 150 nM.

B3: NH2-C(Fm)(thioIZN17)3 (peptide)
peptide 1: CCCGGIKKEIEAIKKEQEAIKKKIEAIEKLLQLTVWGIKQLQARIL
peptide 2: GGGIKKEIEAIKKEQEAIKKKIEAIEKLLQLTVWGIKQLQARIL
modifications: N-terminal acetyl (from bromoacetyl) joined by a thioether bond to a Cys of the CC chain; free N-terminal amine; Cys1 thiol protected with Fm; Ttds linker between Cys1 and Cys2; Cys2 and Cys3 each joined by a thioether bond to the N-terminal acetyl of a GGGIZN17 chain
For B3, the “IC50, single cell infectivity assay, HIV-1 HXB2” value (HIV-1 gp41 (strain HXB2) [1]) was 1.1 nM.

B4: ac-C(Acm)(thioIZN17)3 (peptide)
peptide 1: B3 peptide 1
peptide 2: B3 peptide 2
modifications: N-terminal acetyl (from bromoacetyl) joined by a thioether bond to a Cys of the CC chain; N-terminal acetyl; Cys1 thiol protected with acetamidomethyl (Acm); Ttds linker between Cys1 and Cys2; Cys2 and Cys3 each joined by a thioether bond to the N-terminal acetyl of a GGGIZN17 chain
B4 was tested, and the “IC50 … against HIV-HXB2” value (HIV-1 gp41 (strain HXB2) [2]) was 0.24 nM.

B5: ac-C(thioIZN17)3 (peptide)
peptide 1: B3 peptide 1
peptide 2: B3 peptide 2
modifications: N-terminal acetyl (from bromoacetyl) joined by a thioether bond to a Cys of the CC chain; N-terminal acetyl; Cys1 free thiol; Ttds linker between Cys1 and Cys2; Cys2 and Cys3 each joined by a thioether bond to the N-terminal acetyl of a GGGIZN17 chain
With B5 the “IC50, anti-viral activity assay, HIV-HXB2” value (HIV-1 gp41 (strain HXB2) [1]) was 0.24 nM.

B6: (Biotin-CCIZN23)3 (peptide)
peptide: Biotin-GCCGGIKKEIEAIKKEQEAIKKKIEAIEKEIEAQQHLLQLTVWGIKQLQARIL
modifications: not fully specified (bridges); also: covalent homotrimer via three interchain disulfides
With B6 the “IC50, single-cycle HIV infectivity assay” value (HIV-1 gp41 (strain HXB2) [3]) was 0.316 nM.

B7: (I10N17CC)3 (peptide)
peptide: IKKKIEAIEKLLQLTVWGIKQLQARILGGCC
modifications: not fully specified (bridges); also: homotrimer of three chains, cysteine pairing not given here
For B7, the “IC50 … against HIV-HXB2” value (HIV-1 gp41 (strain HXB2) [2]) was 77.6 nM.

B8: (CCI10N17)3 (peptide)
peptide: Ac-CCGGIKKKIEAIEKLLQLTVWGIKQLQARIL-NH2
modifications: not fully specified (bridges); also: homotrimer of three chains, cysteine pairing not given here
With B8 the “IC50, anti-viral assay against HIV-1 HXB2 (FIG. 13)” value (“IC50, anti-viral assay” for short) (HIV-1 gp41 (strain HXB2) [1]) was 24 nM, the “fold change of IC50 against (CCIZN17)3, anti-viral assay against HIV-1 HXB2 (FIG. 13)” value (HIV-1 gp41 (strain HXB2) [1]) was ~150 fold and the “fold change of IC50 against IZN17, anti-viral assay against HIV-1 HXB2 (FIG. 13)” value (HIV-1 gp41 (strain HXB2) [1]) was ~10 fold.

B9: (CCIZN13)3 (peptide)
peptide: Ac-CCGGIKKEIEAIKKEQEAIKKKIEAIEKLLQLTVWGIKQLQ
modifications: not fully specified (bridges); also: homotrimer of three chains, cysteine pairing not given here
B9 was tested, and the “IC50, antiviral activity against HIV HXB2 (FIG. 13)” value (HIV-1 gp41 (strain HXB2) [1]) was 85.3 nM.

B10: (CCIZN17Ala4)3 (peptide)
peptide: Ac-CCGGIKKEIEAIKKEQEAIKKKIEAIEKLLQLTVWGIKALAAAIA-NH2
modifications: not fully specified (bridges); also: homotrimer of three chains, cysteine pairing not given here
For B10, the “IC50 … against HIV-HXB2” value (HIV-1 gp41 (strain HXB2) [2]) was 47 nM.

B11: (CCIZN17)3 (peptide)
peptide: Ac-CCGGIKKEIEAIKKEQEAIKKKIEAIEKLLQLTVWGIKQLQARIL-NH2
modifications: not fully specified (bridges); also: homotrimer of three chains, cysteine pairing not given here
In the case of B11, the “IC50, anti-viral assay” value (HIV-1 gp41 (strain HXB2) [1]) is reported as 0.132 nM, the “IC50, single-cycle HIV infectivity assay” value (HIV-1 gp41 (strain HXB2) [3]) is reported as 0.04 nM and the “IC50, single-cycle HIV infectivity assay” value (HIV-1 gp41 (strain 89.6)) is reported as 8 nM. The “IC50, single-cycle HIV infectivity assay” value (gp41 of SHIV-89.6P) was 6.9 nM, the “IC50, single-cycle HIV infectivity assay” value (HIV-1 gp41 (strain MN-1)) was 0.9 nM and the “IC50, single-cycle HIV infectivity assay” value [4] was 0.1 nM. For the same binder, the “IC50, single-cycle HIV infectivity assay” value (HIV-1 gp41 (strain BaL)) was 0.34 nM.

In the case of Ac-IKKEIEAIKKEQEAIKKKIEAIEKLLQLTVWGIKQLQARIL-NH2 (also: non-covalent trimeric coiled-coil) [IZN17], the “IC50, anti-viral assay” value (HIV-1 gp41 (strain HXB2) [1]) is reported as 1.68 nM, the “IC50, single-cycle infectivity assay, HIV-1 HXB2” value (HIV-1 gp41 (strain HXB2) [1]) is reported as 0.2 nM and the “IC50, single-cycle HIV infectivity assay” value (HIV-1 gp41 (strain HXB2) [3]) is reported as 1.7 nM. The “IC50, single-cycle HIV infectivity assay” value (HIV-1 gp41 (strain BaL)) was 3.2 nM.

B12: ac-C(Acm)(thioS17N17)3 (peptide)
peptide 1: CCCGGIEKKIEAIEKKIEAIEKLLQLTVWGIKQLQARIL
peptide 2: GGGIEKKIEAIEKKIEAIEKLLQLTVWGIKQLQARIL
modifications: N-terminal acetyl (from bromoacetyl) joined by a thioether bond to a Cys of the CC chain; N-terminal acetyl; Cys1 thiol protected with Acm; Ttds linker between Cys1 and Cys2; Cys2 and Cys3 each joined by a thioether bond to the N-terminal acetyl of a GGGS17N17 chain
With B12 the “IC50, single cell infectivity assay, HIV-1 HXB2” value (HIV-1 gp41 (strain HXB2) [1]) was 0.27 nM.
